Assay results published in patent US20110190142A1, “DETERMINATION OF RENIN-PRORENIN RECEPTOR ACTIVITY” (Charite- Universitatsmedizin Berlin, priority 2006, published 2011).
Each block holds one molecule with its values, some of them ahead of it.

Columns and labels:
[1] = molecular target: T1, PLZF (promyelocytic zinc finger protein, ZBTB16), endogenous (Homo sapiens, UniProt Q05516 Q05516:1-673); assay: ChIP-qPCR in HEK293; about 6-fold increased recruitment to the RER promoter region around the element after renin vs vehicle; conditions: tags: none (endogenous, HEK293)
T1 sequence: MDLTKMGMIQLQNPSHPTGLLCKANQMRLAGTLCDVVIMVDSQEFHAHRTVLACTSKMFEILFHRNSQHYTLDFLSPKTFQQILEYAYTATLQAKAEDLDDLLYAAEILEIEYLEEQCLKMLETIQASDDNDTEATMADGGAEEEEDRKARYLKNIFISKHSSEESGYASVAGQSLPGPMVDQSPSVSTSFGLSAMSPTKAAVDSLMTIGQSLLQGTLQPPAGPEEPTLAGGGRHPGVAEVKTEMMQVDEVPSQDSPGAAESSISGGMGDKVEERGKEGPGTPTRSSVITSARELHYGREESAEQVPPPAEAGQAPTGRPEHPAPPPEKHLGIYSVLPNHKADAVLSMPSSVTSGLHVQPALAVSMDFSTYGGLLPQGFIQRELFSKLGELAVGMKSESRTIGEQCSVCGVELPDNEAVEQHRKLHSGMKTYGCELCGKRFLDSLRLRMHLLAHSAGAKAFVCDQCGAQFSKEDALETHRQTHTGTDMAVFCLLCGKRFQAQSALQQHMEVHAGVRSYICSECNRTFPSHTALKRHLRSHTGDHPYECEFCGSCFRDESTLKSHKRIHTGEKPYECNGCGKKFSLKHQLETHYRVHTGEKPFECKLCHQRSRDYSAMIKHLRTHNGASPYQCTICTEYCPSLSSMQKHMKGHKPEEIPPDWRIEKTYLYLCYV

HEK293 cells [2] = assay: Number of viable cells (ATP concentration); type: cell-based, human; conditions: for increase of viable cell number compared to vehicle: HEK293 cells, 5 nM, 24 hours
Experimental: (§1) For all cell culture studies immortalized human epithelial kidney cells (HEK293 cells) were used. […] Additional inhibition with 1 μM aliskiren was performed as indicated. 1 hour after pre-treatment with losartan±aliskiren cells were stimulated with either 5 nM renin, 5 nM prorenin, or the respective vehicle. Cells were harvested for mRNA expression analysis or determination of viable cell number and apoptosis after 3 or 24 hours, respectively. These experimental procedures have been described in detail previously (Schefe et al., 2006). All experiments were performed in independent triplicates.

[3] = system: renin/prorenin receptor (RER); assay: PI3K-p85α mRNA by quantitative real-time PCR after renin/prorenin stimulation of HEK293 cells; type: cell-based, human
Experimental: (§2) HEK293 cells were seeded in 24-well plates and transfected with either 100 ng of pCEP4-PLZF-myc expression vector, 50 ng of indicated pGL3-basic construct and 10 ng of phRL-null plasmid (for luciferase assay), or 100 ng of pCEP4-PLZF-myc alone (for PCR experiments) per well as described above. siRNA transfection, renin stimulation and determination of reporter activity were performed as described above, except for an exceeded renin stimulation period of 3 hours.
(§3) RNA isolation and cDNA synthesis were performed as described above. qPCR was performed applying a SYBR Green I reaction mix and run on a Stratagene Mx3000P (Stratagene, La Jolla, Calif., USA) using the following primers: […]
(§4) Data represents the mean expression level±standard deviation (standardized to 18S rRNA expression) calculated according to the ddCT method of at least three independent measurements. Equality of PCR efficiencies has been verified applying the program LinRegPCR (Ramakers et al. 2003) and ANOVA testing.
as §1

HEK293 cells [4] = assay: Caspase 3/7 activity as a measure of apoptosis; type: cell-based, human; conditions: for reduction of caspase 3/7 activity: HEK293 cells, 5 nM, 24 hours
Experimental: as §1

[5] = system: renin/prorenin receptor (RER); assay: RER mRNA by quantitative real-time PCR after renin/prorenin stimulation of HEK293 cells; type: cell-based, human
Experimental: as §2, §3, §4, §1

[6] = molecular target: endogenous human RER of HEK293 cells (human) (UniProt O75787); assay: cell-based or functional assay
Chain of endogenous human RER of HEK293 cells (human) (O75787 17-350): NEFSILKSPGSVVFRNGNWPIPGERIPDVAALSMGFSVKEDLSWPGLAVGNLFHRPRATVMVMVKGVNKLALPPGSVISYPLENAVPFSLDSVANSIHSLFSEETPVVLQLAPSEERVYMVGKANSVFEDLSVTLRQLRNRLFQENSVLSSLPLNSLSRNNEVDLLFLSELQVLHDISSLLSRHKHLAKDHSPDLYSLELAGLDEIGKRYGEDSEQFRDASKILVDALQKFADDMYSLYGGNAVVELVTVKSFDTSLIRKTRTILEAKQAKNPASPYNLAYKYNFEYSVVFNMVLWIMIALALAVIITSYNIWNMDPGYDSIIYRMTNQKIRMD

[7] = system: renin/prorenin receptor (RER); assay: PLZF translocation, fractionated extraction of cytosolic and nuclear proteins and Western blot; type: cell-based, human; conditions: HEK293 cells, c-myc-tagged PLZF, 10 nM renin
Experimental: Cytosolic and membrane proteins were isolated using the ProteoExtract Subcellular Proteome Extraction Kit (Calbiochem, Darmstadt, Germany). A fractionated extraction of cytosolic and nuclear proteins was performed as described previously (Funke-Kaiser et al., 2003a). Protein concentrations were determined using the DC Protein Assay (Bio-Rad, München, Germany). Cytosolic, membrane and nuclear fractions were controlled by Western blot using antibodies against Akt (mouse monoclonal, 5G3; 1:1,000; Cell Signalling, Danvers, Mass., USA), angiotensin AT1 receptor (rabbit polyclonal, sc-579; 1:2,000; Santa Cruz Biotechnology, Heidelberg, Germany) and TBP (rabbit polyclonal, sc-204; 1:1,000; Santa Cruz Biotechnology), respectively.
For PLZF translocation experiments HEK293 cells were seeded on day 1 in 6-well plates. 250 ng of pCEP4-PLZF-myc expression vector per well were transfected on day 2 at 40-60% confluency using GeneJuice (Merck Biosciences, Bad Soden, Germany) according to the manufacturer's protocol. […] Chemoluminescence was detected with ECL (Amersham, München, Germany), and subsequent exposition to Hyperfilm (Amersham).

[8] = system: renin/prorenin receptor (RER); assay: PI3K-p85α promoter luciferase reporter assay under renin stimulation; type: cell-based, human; conditions: PLZF-overexpressing HEK293 cells, renin vs control
Experimental: (§5) The indicated cell types were seeded on day 1 in 12-well plates. 100 ng of indicated pGL3-basic constructs (encoding firefly luciferase) and 20 ng of phRL-null plasmid (encoding humanized Renilla luciferase for standardization of promoter activity; Promega) per well were transfected on day 2 at 60-80% confluency using GeneJuice (Merck Biosciences, Bad Soden, Germany) according to the manufacturer's protocol. Cells were harvested 48 hours after transfection using Passive Lysis Buffer (Promega). Reporter activities were measured in a Pharmingen Monolight 3010 luminometer (BD Biosciences, Erembodegem, Belgium) using the Dual-Luciferase Reporter Assay System (Promega). Promoter activity is expressed as relative luciferase activity (RLA) (Funke-Kaiser et al., 2003a). RLA data represent the mean±standard deviation of at least three single, parallel transfection experiments.
as §2

[9] = system: renin/prorenin receptor (RER); assay: RER promoter luciferase reporter assay under renin stimulation; type: cell-based, human; conditions: PLZF-overexpressing HEK293 cells, renin vs all controls
Experimental: as §5, §2

[10] = HEK293 cells transfected with scrambled control siRNA
[11] = HEK293 cells, 5 nM, 3 hours, 1 μM losartan pre-treatment

B1: RER promoter PLZF element, native (dsDNA)
DNA 1: CTTAACTACAGTTTTCACTGG
DNA 2: CCAGTGAAAACTGTAGTTAAG
binding signal [1]: 6 fold

PI3K-p85α mRNA after 3 hours, 5 nM prorenin, HEK293 cells (% of vehicle control) [6]: 176
PI3K-p85α mRNA, prorenin, HEK293 cells with scrambled control siRNA (% of vehicle control) [6]: 213
RER mRNA after 3 hours, 5 nM prorenin, HEK293 cells (% of vehicle control) [6]: 63.6
RER mRNA, prorenin, HEK293 cells with scrambled control siRNA (% of vehicle control) [6]: 59.7
caspase 3/7 activity after 24 hours, 5 nM prorenin, HEK293 cells [6]: 35.7 % decrease
caspase 3/7 activity, prorenin, HEK293 cells with scrambled control siRNA [6]: 53.4 % decrease
B2: prorenin (ligand, UniProt P00797 24-406, looked up, species assumed)
pro-form: LPTDTTTFKRIFLKRMPSIRESLKERGVDMARLGPEWSQPMKRLTLGNTTSSVILTNYMDTQYYGEIGIGTPPQTFKVVFDTGSSNVWVPSSKCSRLYTACVYHKLFDASDSSSYKHNGTELTLRYSTGTVSGFLSQDIITVGGITVTQMFGEVTEMPALPFMLAEFDGVVGMGFIEQAIGRVTPIFDNIISQGVLKEDVFSFYYNRDSENSQSLGGQIVLGGSDPQHYEGNFHYINLIKTGVWQIQMKGVSVGSSTLLCEDGCLALVDTGASYISGSTSSIEKLMEALGAKKRLFDYVVKCNEGPTLPDISFHLGGKEYTLTSADYVFQESYSSKKLCTLAIHAMDIPPPTGPTWALGATFIRKFYTEFDRRNNRIGFALAR
modifications: pro-form
increase of viable cell number (HEK293 cells [2]; [10]): 87.5%
increase of viable cell number compared to vehicle (HEK293 cells [2]): 123.8%
PI3K-p85α mRNA, % of vehicle control [3, 10]: 212.8%
PI3K-p85α mRNA, % of vehicle control [3, 11]: 175.8%
attenuation of caspase 3/7 activity (HEK293 cells [4]; [10]): 53.4%
reduction of caspase 3/7 activity (HEK293 cells [4]): 35.7%
RER mRNA, % of vehicle control [5, 10]: 59.7%
RER mRNA, % of vehicle control [5, 11]: 63.6%
viable cell number after 24 hours, 5 nM prorenin, HEK293 cells [6]: 124 % increase
viable cell number, prorenin, HEK293 cells with scrambled control siRNA [6]: 87.5 % increase

decrease in the activity of a wild type RER promoter [9]: about 30%
PI3K-p85α mRNA (real-time PCR), HEK293 cells with PLZF overexpression [6]: 105 % increase
PI3K-p85α mRNA (real-time PCR), HEK293 cells without PLZF overexpression [6]: 30.2 % increase
PI3K-p85α mRNA after 3 hours, 5 nM renin, HEK293 cells (% of vehicle control) [6]: 172
PI3K-p85α promoter activity (luciferase reporter) in PLZF-overexpressing HEK293 cells [6]: 45 % increase
PLZF recruitment to the RER promoter (ChIP with real-time PCR) in HEK293 cells [6]: 6 fold
RER mRNA (real-time PCR) in HEK293 cells after renin stimulation combined with PLZF transfection [6]: 45.4 % of control
RER mRNA (real-time PCR) in HEK293 cells after renin stimulation, without PLZF overexpression [6]: 80.6 % of control
RER mRNA after 3 hours, 5 nM renin, HEK293 cells (% of vehicle control) [6]: 59.2
RER promoter activity (luciferase reporter) in PLZF-overexpressing HEK293 cells [6]: 30 % decrease
caspase 3/7 activity after 24 hours, 5 nM renin, HEK293 cells [6]: 31 % decrease
B3: human recombinant renin (mammalian expression) (ligand, UniProt P00797 67-406, looked up)
chain: LTLGNTTSSVILTNYMDTQYYGEIGIGTPPQTFKVVFDTGSSNVWVPSSKCSRLYTACVYHKLFDASDSSSYKHNGTELTLRYSTGTVSGFLSQDIITVGGITVTQMFGEVTEMPALPFMLAEFDGVVGMGFIEQAIGRVTPIFDNIISQGVLKEDVFSFYYNRDSENSQSLGGQIVLGGSDPQHYEGNFHYINLIKTGVWQIQMKGVSVGSSTLLCEDGCLALVDTGASYISGSTSSIEKLMEALGAKKRLFDYVVKCNEGPTLPDISFHLGGKEYTLTSADYVFQESYSSKKLCTLAIHAMDIPPPTGPTWALGATFIRKFYTEFDRRNNRIGFALAR
translocation of PLZF from the cytoplasm to the nucleus [7]: clear increase in nuclear PLZF
increase in PI3K-p85α promoter activity [8]: 45%
increase of viable cell number compared to vehicle (HEK293 cells [2]): 103.6%
increase of PI3K-p85α mRNA relative to vehicle control ([3]; HEK293 cells with PLZF overexpression): 105.2±6.74%
increase of PI3K-p85α mRNA relative to vehicle control ([3]; HEK293 cells without PLZF overexpression): 30.2±7.9%
PI3K-p85α mRNA, % of vehicle control [3, 11]: 171.8%
reduction of caspase 3/7 activity (HEK293 cells [4]): 31%
RER mRNA (first column set to 100%) ([5]; HEK293 cells with PLZF overexpression (pCEP4-PLZF) plus renin stimulation): 45.4±4.7%
RER mRNA (first column set to 100%) ([5]; HEK293 cells without PLZF overexpression, renin stimulation vs vehicle): 80.6±3.3%
RER mRNA, % of vehicle control [5, 11]: 59.2%
